# Measurements reported in patent US20100003237.
# Target: Soluble rat tail collagen Type I (UniProt P02454)
# Chain of Histidine (His)-tagged purified recombinant human cathepsin-L (R&D Systems, Cat# 952-CY) (chain, as listed by the source): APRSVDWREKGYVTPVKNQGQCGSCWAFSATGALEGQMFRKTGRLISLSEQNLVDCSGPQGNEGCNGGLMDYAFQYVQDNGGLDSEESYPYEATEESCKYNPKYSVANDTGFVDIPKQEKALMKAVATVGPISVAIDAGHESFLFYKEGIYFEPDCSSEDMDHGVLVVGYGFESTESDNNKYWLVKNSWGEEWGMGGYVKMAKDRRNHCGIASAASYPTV
# Chain of cathepsin D (R&D systems, activated) (chain, as listed by the source): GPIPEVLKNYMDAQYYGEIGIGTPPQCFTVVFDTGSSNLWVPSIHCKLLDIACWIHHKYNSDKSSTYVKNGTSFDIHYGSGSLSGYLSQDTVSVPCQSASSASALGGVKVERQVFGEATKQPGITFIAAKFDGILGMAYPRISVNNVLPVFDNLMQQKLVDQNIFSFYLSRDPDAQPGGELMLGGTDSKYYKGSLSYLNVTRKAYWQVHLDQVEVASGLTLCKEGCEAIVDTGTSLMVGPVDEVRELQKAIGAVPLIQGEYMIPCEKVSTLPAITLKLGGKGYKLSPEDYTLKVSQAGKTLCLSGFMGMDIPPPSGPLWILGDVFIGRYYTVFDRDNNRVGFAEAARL
row,Substance,"degradation of soluble rat tail collagen Type I (1 hour at 37° C., SDS-Page gels, Coomassie Blue staining)"
1,"Histidine (His)-tagged purified recombinant human cathepsin-L (R&D Systems, Cat# 952-CY)","cathepsin-L was the only enzyme that was active at pH 5.0, but not at pH 8.0"
2,"cathepsin B (R&D systems, activated)","Cathepsins B, D and S showed some slight degradation of rat collagen at the manufacture specified pH and no degradation of rat collagen at pH 8.0"
3,Bacterial collagenase (Sigma Chemicals),bacterial collagenase degraded rat collagen at both pH 5.0 and pH 8.0
4,"cathepsin D (R&D systems, activated)","Cathepsins B, D and S showed some slight degradation of rat collagen at the manufacture specified pH and no degradation of rat collagen at pH 8.0"
